The values that follow come from paper PMC5440498.

The data set concerns the target His-MBP-eYFP-PRDM9Cst-ZnF (Mus musculus castaneus (CAST/EiJ, Prdm9 Cst allele)) (UniProt Q96EQ9). Put plainly: EMSA. The following applies: 2.5 uM protein, 15 nM DNA, 50 ng/ul polydIdC, EMSA (chimeras): 10 mM Tris-HCl pH 7.5, 50 mM KCl, 1 mM DTT, 0.05% NP-40, 50 uM ZnCl2, titration EMSA: low polydIdC plus 0.03% sarcosyl …. For orientation: A gel shift assay detects complexes by their altered migration in electrophoresis.
Chain of UniProt Q96EQ9 (Q96EQ9 whole entry): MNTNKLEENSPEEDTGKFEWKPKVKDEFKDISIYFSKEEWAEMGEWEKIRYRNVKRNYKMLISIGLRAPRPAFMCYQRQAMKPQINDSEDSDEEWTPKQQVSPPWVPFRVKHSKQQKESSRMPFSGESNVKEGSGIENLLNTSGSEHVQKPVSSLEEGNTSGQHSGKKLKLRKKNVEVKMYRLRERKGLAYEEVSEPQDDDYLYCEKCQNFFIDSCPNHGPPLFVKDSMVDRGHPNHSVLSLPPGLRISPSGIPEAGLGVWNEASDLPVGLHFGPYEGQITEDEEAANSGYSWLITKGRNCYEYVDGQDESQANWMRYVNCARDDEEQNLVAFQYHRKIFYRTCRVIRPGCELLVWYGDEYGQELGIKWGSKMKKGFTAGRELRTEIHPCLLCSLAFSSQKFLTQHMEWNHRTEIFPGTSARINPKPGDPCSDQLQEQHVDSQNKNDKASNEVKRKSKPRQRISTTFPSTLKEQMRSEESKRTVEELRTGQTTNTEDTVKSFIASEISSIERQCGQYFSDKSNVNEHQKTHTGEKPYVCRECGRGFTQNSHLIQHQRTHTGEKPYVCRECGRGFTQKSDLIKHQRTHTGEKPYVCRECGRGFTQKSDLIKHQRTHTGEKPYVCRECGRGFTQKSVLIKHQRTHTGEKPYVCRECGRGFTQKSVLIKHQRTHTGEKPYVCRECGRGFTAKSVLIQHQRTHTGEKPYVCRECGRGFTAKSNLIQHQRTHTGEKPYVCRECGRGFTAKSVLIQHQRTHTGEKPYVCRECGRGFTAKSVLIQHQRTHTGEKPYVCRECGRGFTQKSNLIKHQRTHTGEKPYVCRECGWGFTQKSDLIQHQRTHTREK

Regarding “GTGGGAGGAGATGGTGGGTGAATAGTGTGCAGACTTGGACCCTGCCCTTTCTTTACGCATTCCACTAACCATGGG (double strand) [Hlx1 B6 75 bp (hot)]”, the binding signal turned out to be 100 % bound.
